Results: patent US11554097B2, “Recombinant production of hybrid lipid-biopolymer materials that self-assemble and encapsulate agents” (Duke University, priority 2017, dated 2023)
Marks after values point to notes of the source that are not given here.

B1: ELP90A,40: non-myristoylated control sample, 40 repeats (SEQ ID NO: 36) (protein)
chain: MGLYASKLFSNLGAGVPGAGVPGVGVPGAGVPGAGVPGAGVPGAGVPGAGVPGAGVPGAGVPGAGVPGAGVPGVGVPGAGVPGAGVPGAGVPGAGVPGAGVPGAGVPGAGVPGAGVPGAGVPGVGVPGAGVPGAGVPGAGVPGAGVPGAGVPGAGVPGAGVPGAGVPGAGVPGVGVPGAGVPGAGVPGAGVPGAGVPGAGVPGAGVPGAGVPG
B2: M-ELP90A,40: myristoylated ELP, 90% alanine, 10% valine, 40 pentapeptide repeats (SEQ ID NO: 36) (conjugate)
chain: B1 chain
modifications: N-terminal myristoylation
B3: M-ELP100V,40: myristoylated ELP with 40 repeats of VPGXG where X is 100% valine (SEQ ID NO: 37) (conjugate)
chain: MGLYASKLFSNLGVGVPGVGVPGVGVPGVGVPGVGVPGVGVPGVGVPGVGVPGVGVPGVGVPGVGVPGVGVPGVGVPGVGVPGVGVPGVGVPGVGVPGVGVPGVGVPGVGVPGVGVPGVGVPGVGVPGVGVPGVGVPGVGVPGVGVPGVGVPGVGVPGVGVPGVGVPGVGVPGVGVPGVGVPGVGVPGVGVPGVGVPGVGVPGVGVPGVGVPG
modifications: N-terminal myristoylation
B4: M-ELP90A,120: myristoylated ELP: Arf2 recognition sequence fused to 120 repeats of VPGXG, X 90% alanine and 10% valine (SEQ ID NO: 34) (conjugate)
chain: MGLYASKLFSNLGAGVPGAGVPGVGVPGAGVPGAGVPGAGVPGAGVPGAGVPGAGVPGAGVPGAGVPGAGVPGVGVPGAGVPGAGVPGAGVPGAGVPGAGVPGAGVPGAGVPGAGVPGAGVPGVGVPGAGVPGAGVPGAGVPGAGVPGAGVPGAGVPGAGVPGAGVPGAGVPGVGVPGAGVPGAGVPGAGVPGAGVPGAGVPGAGVPGAGVPGAGVPGAGVPGVGVPGAGVPGAGVPGAGVPGAGVPGAGVPGAGVPGAGVPGAGVPGAGVPGVGVPGAGVPGAGVPGAGVPGAGVPGAGVPGAGVPGAGVPGAGVPGAGVPGVGVPGAGVPGAGVPGAGVPGAGVPGAGVPGAGVPGAGVPGAGVPGAGVPGVGVPGAGVPGAGVPGAGVPGAGVPGAGVPGAGVPGAGVPGAGVPGAGVPGVGVPGAGVPGAGVPGAGVPGAGVPGAGVPGAGVPGAGVPGAGVPGAGVPGVGVPGAGVPGAGVPGAGVPGAGVPGAGVPGAGVPGAGVPGAGVPGAGVPGVGVPGAGVPGAGVPGAGVPGAGVPGAGVPGAGVPGAGVPGAGVPGAGVPGVGVPGAGVPGAGVPGAGVPGAGVPGAGVPGAGVPGAGVPGY
modifications: N-terminal myristoylation
B5: ELP90A,120: non-myristoylated control, recognition sequence-ELP grown without NMT (SEQ ID NO: 34) (protein)
chain: B4 chain
B6: M-ELP90A,80: myristoylated ELP, same composition (90% alanine, 10% valine), 80 pentapeptide repeats (SEQ ID NO: 35) (conjugate)
chain: MGLYASKLFSNLGAGVPGAGVPGVGVPGAGVPGAGVPGAGVPGAGVPGAGVPGAGVPGAGVPGAGVPGAGVPGVGVPGAGVPGAGVPGAGVPGAGVPGAGVPGAGVPGAGVPGAGVPGAGVPGVGVPGAGVPGAGVPGAGVPGAGVPGAGVPGAGVPGAGVPGAGVPGAGVPGVGVPGAGVPGAGVPGAGVPGAGVPGAGVPGAGVPGAGVPGAGVPGAGVPGVGVPGAGVPGAGVPGAGVPGAGVPGAGVPGAGVPGAGVPGAGVPGAGVPGVGVPGAGVPGAGVPGAGVPGAGVPGAGVPGAGVPGAGVPGAGVPGAGVPGVGVPGAGVPGAGVPGAGVPGAGVPGAGVPGAGVPGAGVPGAGVPGAGVPGVGVPGAGVPGAGVPGAGVPGAGVPGAGVPGAGVPGAGVPG
modifications: N-terminal myristoylation

Legend:
Assay type in all cases: physicochemical
[1] = UV-Vis turbidity, temperature-triggered LCST phase transition
Description: We investigated the temperature-triggered phase-transition of each construct by recording the optical density of the protein solution at 350 nm as the temperature is ramped up and down on a temperature-controlled UV-Vis spectrophotometer (Cary 300 Bio, Varian Instruments, Palo Alto, Calif.) (FIG. 10-FIG. 12). The transition temperature (T) is defined as the inflection point of the turbidity profile and was calculated as the maximum of the first derivative of OD350 versus temperature, which was determined using Igor Pro software (FIG. 10). Turbidity profiles for each sample were measured in PBS at concentrations between 12.5 and 250 μM. For the non-myristoylated control sample, ELP90A,40, the transition temperatures at these concentrations were well above 80° C. Consequently, their […] values were monitored in 1 M NaCl, which served to reduce the T into a temperature range that is experimentally accessible.
We next used UV-vis spectrophotometry to evaluate whether the lipid-ELP hybrid retained the LCST phase behavior of its parent ELP. The absorbance at 350 nm was monitored as the solution temperature was ramped up and then down at a rate of 1° C./min. […] The transition temperature (Tt) is defined as the inflection point of absorbance versus temperature, calculated as the maximum of the curve's first derivative (FIG. 2D, arrow).

[2] = DLS kinetics study of self-assembly; settings: 50 μM in PBS, room temperature, after filtering
Description: Thus, we wanted to take more frequent light scattering measurements to track their changing size. Larger particles scatter more light, thus, we tracked intensity via DLS to monitor the size of the 40-mer M-ELPs' self-assembly.
The 40-mer M-ELPs were prepared at 50 μM in PBS and filtered directly into the instrument's quartz cell. The instrument was pre-set to room temperature and, immediately after filtering, the sample was measured periodically over 24 h for both constructs and out to 1 week for M-ELP90A,40. While M-ELP90A,40 takes 144-168 h to reach equilibrium (FIG. 17A), M-ELP100V,40 appears to do so more quickly, by 24 h after filtering (FIG. 17B).

[3] = Dynamic and static light scattering of self-assembled M-ELPs; settings: for Hydrodynamic Radius, Day 0, Rh: Day 0, freshly filtered; for Hydrodynamic Radius, Day 0, Rh / Second Virial Coefficient A2 / Shape Factor, ρ, Rg/Rh: PBS; for Second Virial Coefficient A2 / Shape Factor, ρ, Rg/Rh: full Zimm plots; for Aggregation Number, Nagg, MWparticle/Munimer: partial Zimm plots, Day 0; for hydrodynamic radius (Rh) by DLS: filtered samples in PBS at 25° C.
Description: Characterization of myristoylated and non-myristoylated ELPs: Dynamic light scattering (DLS) studies were carried out to investigate the self-assembly of various myristoylated ELPs in aqueous solution. Prior to analysis, samples were prepared in PBS at a concentration of 50 μM, and filtered through a 0.22 μm polyvinylidene fluoride membrane (Durapore) directly into a quartz DLS cell. DLS experiments were conducted in a temperature-controlled DynaPro Microsampler (Wyatt Technologies). Measurements were obtained over a temperature range of 15 to 20° C. using 1° C. steps and at 25° C. 18 acquisitions of 5 s each were collected for every temperature point. Autocorrelation intensities at 15° C. were fitted using the regularization model and then depicted as a population size distribution histogram (FIG. 13) and intensity size distribution (FIG. 14) using Wyatt Dynamics software.
Static light scattering (SLS) studies were carried out to quantify the Rg, Rh, and Nagg of myristoylated ELPs in aqueous solution. Samples were prepared in PBS at concentration ranging from 0.5-5 mg/mL and filtered through a 0.22 μm polyvinylidene fluoride membrane (Durapore) directly into a 10 mm, disposable borosilicate glass tube (Fisher Scientific). Experiments were performed using an ALV/CGS-3 goniometer system (Germany). For M-ELP90A,120 and M-ELP90A,80, as well as for M-ELP90A,40 and M-ELP100V,40 at early time points, measurements were obtained at 25° C. for angles between 30 and 150° C. and made at 5° C. increments with 3 runs of 10 s. Smaller angles (20-45° C.) were used to measure the 40-mer ELPs at later time points, after they had matured to their larger rod-like shape. Full Zimm plots were created by conducting SLS for each construct at different concentrations ranging from 25 μM to 100 μM. These Zimm plots were created using SLS data and ALVStat software after the refractive index increment (dn/dc) was calculated (FIG. 15). These plots provided the second virial coefficient and Rg and from which shape factor was calculated (TABLE 1). Partial Zimm plots were used to calculate Nagg at 1 mg/mL.

[4] = Cryo-TEM imaging of self-assembled structures; settings: PBS, filtered
Description: Cryo-transmission electron microscopy (TEM) experiments were performed at Duke University's Shared Materials Instrumentation Facility and at Thermo Fisher Scientific (Formerly FEI). Lacey holey carbon grids (Ted Pella, Redding, Calif.) were glow discharged in a PELCO EasiGlow Cleaning System (Ted Pella, Redding, Calif.). After filtering the samples, a 3 μL drop (1 mg/mL of each construct) at 25° C. (below the Tt for M-ELP constructs) was deposited onto the grid, blotted for 3 s with an offset of −3 mm, and vitrified in liquid ethane using the Vitrobot Mark III (FEI, Eindhoven, Netherlands). The sample chamber was maintained at 100% relative humidity to prevent sample evaporation. Grids were transferred to a Gatan 626 cryoholder (Gatan, Pleasanton, Calif.) and imaged with an FEI Tecnai G^2 Twin TEM (FEI, Eindhoven, Netherlands), which was operated at 80 keV.

Molecule	transition temperature (Tt) ([1]; PBS, 12.5 to 250 μM)	time to reach equilibrium of self-assembly [2] [h]	Refractive Index Increment dn/dc [3] [cm^3 g^−1]	Hydrodynamic Radius, Day 0, Rh [3] [nm]	Second Virial Coefficient A2 [3]	Shape Factor, ρ, Rg/Rh [3]	Aggregation Number, Nagg, MWparticle/Munimer [3]	morphology of self-assembled structure [4]	hydrodynamic radius (Rh) by DLS [3] [nm]	suppression of Tt by myristoylation ([1]; versus unmyristoylated ELP) [°C]
B1	above 80 °C									
B2		144 to 168	0.1669	81.9	−2.30 × 10^−8 mol dm^3 g^−2	1.29	137^b			
B3		≤ 24	0.1258	80.3		1.30	201^b	rod-like micelles		
B4			0.1515	22.7	−9.23 × 10^−9 mol dm^3 g^−2	0.98	29	spherical micelles	~22	~20
B5									6.2	
B6			0.1660	31.2	−5.58 × 10^−9 mol dm^3 g^−2	1.00	48	spherical micelles		
